Columns and labels:
hBTN1A1 ICD = biological target: T1, hBTN1A1 ICD (human, UniProt Q13410 270-526); test: ELISA clone screen, GenScript
T1 sequence: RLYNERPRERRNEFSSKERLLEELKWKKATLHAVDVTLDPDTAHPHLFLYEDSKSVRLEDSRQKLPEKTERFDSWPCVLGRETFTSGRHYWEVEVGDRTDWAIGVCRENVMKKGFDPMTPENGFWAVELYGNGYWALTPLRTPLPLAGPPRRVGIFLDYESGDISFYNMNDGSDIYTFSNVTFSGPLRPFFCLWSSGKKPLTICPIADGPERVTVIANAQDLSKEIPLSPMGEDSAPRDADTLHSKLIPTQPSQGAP

denatured hBTN1A1 ICD = biological target: T2, denatured hBTN1A1 ICD (human, UniProt Q13410 270-526); test: ELISA clone screen, GenScript
T2 construct: Same protein as hBTN1A1 ICD, denatured before the ELISA; also called hBTN1A1 ICD denatured; Denatured ICD
T2 sequence: T1 sequence

BTN1A1 Peptide 4 = biological target: T3, BTN1A1 Peptide 4 (human); test: ELISA clone screen, GenScript
T3 construct: also called BTN1A1-pep4- WT; Pep4
T3 peptide: EVEVGDRTDWAIGVC

[1] = biological target: peptide 4 WT expressed by HEK293T cells (human); test: western blot, STC43H11-1 band over Flag band
[2] = biological target: peptide 4 variant D369A expressed by HEK293T cells (human); test: western blot, STC43H11-1 band over Flag band
[3] = biological target: peptide 4 variant D366A expressed by HEK293T cells (human); test: western blot, STC43H11-1 band over Flag band
[4] = biological target: peptide 4 variant W370A expressed by HEK293T cells (human); test: western blot, STC43H11-1 band over Flag band
[5] = biological target: peptide 4 variant G373A expressed by HEK293T cells (human); test: western blot, STC43H11-1 band over Flag band
[6] = biological target: peptide 4 variant E361A expressed by HEK293T cells (human); test: western blot, STC43H11-1 band over Flag band
[7] = biological target: peptide 4 variant V374A expressed by HEK293T cells (human); test: western blot, STC43H11-1 band over Flag band
[8] = biological target: peptide 4 variant T368A expressed by HEK293T cells (human); test: western blot, STC43H11-1 band over Flag band
[9] = biological target: peptide 4 variant I372A expressed by HEK293T cells (human); test: western blot, STC43H11-1 band over Flag band
[10] = biological target: peptide 4 variant E363A expressed by HEK293T cells (human); test: western blot, STC43H11-1 band over Flag band
[11] = biological target: peptide 4 variant A371G expressed by HEK293T cells (human); test: western blot, STC43H11-1 band over Flag band
[12] = biological target: peptide 4 variant R367A expressed by HEK293T cells (human); test: western blot, STC43H11-1 band over Flag band
[13] = biological target: peptide 4 variant G365A expressed by HEK293T cells (human); test: western blot, STC43H11-1 band over Flag band
[14] = biological target: peptide 4 variant V362A expressed by HEK293T cells (human); test: western blot, STC43H11-1 band over Flag band
[15] = biological target: peptide 4 variant C375A expressed by HEK293T cells (human); test: western blot, STC43H11-1 band over Flag band
[16] = biological target: peptide 4 variant V364A expressed by HEK293T cells (human); test: western blot, STC43H11-1 band over Flag band
[17] = biological target: TRIM variant expressed by HEK293T cells; test: western blot, STC43H11-1 band over Flag band
[18] = biological target: peptide 4 WT expressed by HEK293T cells (human); test: western blot, HEK293T lysate, antibody 1 ug/ml
[19] = biological target: peptide 4 variant D369A expressed by HEK293T cells (human); test: western blot, HEK293T lysate, antibody 1 ug/ml
[20] = biological target: peptide 4 variant D366A expressed by HEK293T cells (human); test: western blot, HEK293T lysate, antibody 1 ug/ml
[21] = biological target: peptide 4 variant W370A expressed by HEK293T cells (human); test: western blot, HEK293T lysate, antibody 1 ug/ml
[22] = biological target: peptide 4 variant G373A expressed by HEK293T cells (human); test: western blot, HEK293T lysate, antibody 1 ug/ml
[23] = biological target: peptide 4 variant E361A expressed by HEK293T cells (human); test: western blot, HEK293T lysate, antibody 1 ug/ml
[24] = biological target: peptide 4 variant V374A expressed by HEK293T cells (human); test: western blot, HEK293T lysate, antibody 1 ug/ml
[25] = biological target: peptide 4 variant T368A expressed by HEK293T cells (human); test: western blot, HEK293T lysate, antibody 1 ug/ml
[26] = biological target: peptide 4 variant I372A expressed by HEK293T cells (human); test: western blot, HEK293T lysate, antibody 1 ug/ml
[27] = biological target: peptide 4 variant A371G expressed by HEK293T cells (human); test: western blot, HEK293T lysate, antibody 1 ug/ml
[28] = biological target: peptide 4 variant R367A expressed by HEK293T cells (human); test: western blot, HEK293T lysate, antibody 1 ug/ml
[29] = biological target: peptide 4 variant G365A expressed by HEK293T cells (human); test: western blot, HEK293T lysate, antibody 1 ug/ml
[30] = biological target: peptide 4 variant V362A expressed by HEK293T cells (human); test: western blot, HEK293T lysate, antibody 1 ug/ml
[31] = biological target: peptide 4 variant C375A expressed by HEK293T cells (human); test: western blot, HEK293T lysate, antibody 1 ug/ml
[32] = biological target: peptide 4 variant V364A expressed by HEK293T cells (human); test: western blot, HEK293T lysate, antibody 1 ug/ml
[33] = biological target: TRIM variant expressed by HEK293T cells; test: western blot, HEK293T lysate, antibody 1 ug/ml
[34] = biological target: T4, CILK1 peptide AQPVHGRTDWASKYA; test: SPR sensorgrams (Response in RU), 15.625, 31.25, 62.5, 125 and 500 nM
T4 construct: also called serine/threonine-protein kinase ICK (CILK) isoform 2 peptide
T4 peptide: AQPVHGRTDWASKYA

ELISA signal (hBTN1A1 ICD): 1.6 | ELISA signal (denatured hBTN1A1 ICD): 2.27 | ELISA signal (BTN1A1 Peptide 4): 0.609 | Normalized Fold [1]: 0.478 | Normalized Fold [2]: 0.000853 | Normalized Fold [3]: -0.0409 | Normalized Fold [4]: 0.0394 | Normalized Fold [5]: 0.0107 | Normalized Fold [6]: 0.231 | Normalized Fold [7]: 0.237 | Normalized Fold [8]: 0.0496 | Normalized Fold [9]: 0.000608 | Normalized Fold [10]: 0.323 | Normalized Fold [11]: 0.045 | Normalized Fold [12]: 0.239 | Normalized Fold [13]: 0.414 | Normalized Fold [14]: 1.18 | Normalized Fold [15]: 1.32 | Normalized Fold [16]: 0.128 | Normalized Fold [17]: -0.00102 | STC43H11-1 Adj. Vol. (Int) [18]: 4.02e+06 | STC43H11-1 Adj. Vol. (Int) [19]: 5470 | STC43H11-1 Adj. Vol. (Int) [20]: -228000 | STC43H11-1 Adj. Vol. (Int) [21]: 221000 | STC43H11-1 Adj. Vol. (Int) [22]: 19900 | STC43H11-1 Adj. Vol. (Int) [23]: 1.35e+06 | STC43H11-1 Adj. Vol. (Int) [24]: 672000 | STC43H11-1 Adj. Vol. (Int) [25]: 374000 | STC43H11-1 Adj. Vol. (Int) [26]: 4010 | STC43H11-1 Adj. Vol. (Int) [27]: 156000 | STC43H11-1 Adj. Vol. (Int) [28]: 1.48e+06 | STC43H11-1 Adj. Vol. (Int) [29]: 2.26e+06 | STC43H11-1 Adj. Vol. (Int) [30]: 7.03e+06 | STC43H11-1 Adj. Vol. (Int) [31]: 4.8e+06 | STC43H11-1 Adj. Vol. (Int) [32]: 480000 | STC43H11-1 Adj. Vol. (Int) [33]: -7610 | binding result [34]: no binding (tested: 500 nM)
B1: STC43H11-1 (antibody, V domains shown)
VH: QSLEESGGRLVTPGGSLTLTCTVSGIDLSSYAMGWVRQAPGEGLEWIGSIGTGGGTGYASWAKGRFTISKTSTTVDLKMTSLTASDTATYFCATSNLWGPGTLVTVSS
VL: QVLTQTASPVSAAVGGTVTINCQASQSVYNNNRCSWFQQKPGQPPKRLIYHTSTLDSGVPSRFKGSGSGTQFTLTISDVQCDDAATYYCLGNYDCSRADCAAFGGGTEVVVK
notes: From immunized New Zealand rabbits; IgG heavy chain and Kappa light chain; also called clone #43H11; Clone 43H11

Source: patent publication US20250189530A1 (STCUBE, published 2025)
